# Data reported in PMC6351033.
# Target: CXCR3 chemotactic receptor (human (endogenous in PBMC)) (UniProt P49682)
# UniProt P49682, sequence (P49682 whole entry): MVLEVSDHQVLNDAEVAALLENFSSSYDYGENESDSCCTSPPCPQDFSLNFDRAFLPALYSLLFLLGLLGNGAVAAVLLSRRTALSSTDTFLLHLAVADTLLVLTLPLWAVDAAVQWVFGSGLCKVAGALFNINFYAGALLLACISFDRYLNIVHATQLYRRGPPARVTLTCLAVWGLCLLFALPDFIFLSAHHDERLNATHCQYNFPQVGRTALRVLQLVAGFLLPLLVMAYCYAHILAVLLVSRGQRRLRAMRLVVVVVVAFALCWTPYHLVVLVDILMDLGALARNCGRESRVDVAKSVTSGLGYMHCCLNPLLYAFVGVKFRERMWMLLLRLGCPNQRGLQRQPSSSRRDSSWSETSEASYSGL
substance,measurement,value
Tag7-Mts1 complex (from UniProt O75594 22-196; P26447 1-101),"chemotaxis of PBMC (Boyden chamber, Tag7-Mts1 at 10^-9 M) after preincubation of the cells with antibodies to CXCR3; reduction of migration",< 20%
